Reference: the RNAGym collection of RNA variant scans (doi:10.7554/elife.80360)

B1: CPEB3 Ribozyme (parent)
chain: GGGGGCCACAGCAGAAGCGUUCACGUCGCGGCCCCUGUCAGAUUCUGGUGAAUCUGCGAAUUCUGCUGU

Variants of: B1
Experiment: self-cleavage, relative activity (ratio to wild type); higher = more cleavage; co-transcriptional

Variant | self-cleavage
G19A G47A | 0.122
G19A G47U | 0.12
C18U A42U | 0.687
G17U A59C | 0.179
G17U C66U | 0.412
G17U C66A | 0.239
C18U U53A | 0.632
C18U U53G | 0.633
G17C U20C | 0.157
C18A G41A | 0.156
G17C C66G | 0.136
G17C C66A | 0.145
G17C U21A | 0.116
C18A G58C | 0.193
G17C C45A | 0.119
G19A G68A | 0.18
G19A G68C | 0.209
C18G U20A | 0.0787
G17A U62A | 0.193
G19C C29U | 0.112
G17C U61A | 0.132
C18A U38G | 0.212
C18A A60G | 0.195
C18A A60C | 0.0911

Variant | self-cleavage
C18A U69C | 0.517
G17U C57A | 0.192
G17U C57G | 0.16
C18U U69A | 0.944
G19C C22U | 0.158
G19A C54G | 0.159
G19C C27A | 0.135
G19A U64A | 0.104
G19A U64G | 0.12
G17C C39U | 0.117
G19A U46A | 0.155
C18U U62G | 0.494
C18U U36G | 0.19
C18G G68U | 0.311
C18G C66U | 0.215
C18G C66G | 0.0954
C18U U64C | 0.383
C18U U64A | 0.351
G17U C34A | 0.195
G19C A59C | 0.0891
G19C A59U | 0.185
C18U G50U | 0.906
C18U G50C | 0.803
C18A G25A | 0.163

Variant | self-cleavage
G19C C32G | 0.207
G17U G65C | 0.218
G17C A52C | 0.126
C18A U44C | 0.106
G17U U67A | 0.513
G17U U67G | 0.627
G17A U67C | 0.491
G17A U69A | 0.703
G19A G48C | 0.188
C18U C24U | 0.4
C18A C33A | 0.153
C18G U61A | 0.223
C18A G65C | 0.217
C18A C57G | 0.114
C18A C57U | 0.157
G19A U69G | 0.249
G19A U69C | 0.333
C18G C22U | 0.192
G19A U38G | 0.156
C18G U55G | 0.175
C18A U49A | 0.16
C18A U49C | 0.195
C18A C54A | 0.162
C18G C27U | 0.0906

Variant | self-cleavage
C18U C22A | 0.0833
C18A U61C | 0.158
C18G U62G | 0.173
C18G A23G | 0.0901
C18G A23U | 0.22
C18U U67G | 0.922
G19A A51G | 0.172
G19A A51C | 0.161
C18U C33A | 0.278
C18U C33G | 0.304
C18G C54G | 0.0613
C18G C54U | 0.15
C18G G37A | 0.119
G19A C29A | 0.159
G17U U53C | 0.188
G19C A23G | 0.11
G17U U43A | 0.218
G17U U43G | 0.163
G17C G65C | 0.195
C18U G41C | 0.211
C18U G41A | 0.331
C18U G41U | 0.44
C18A U26G | 0.118
C18A U26C | 0.17

Variant | self-cleavage
C18A C27G | 0.112
C18A C27U | 0.12
G19C C35U | 0.163
G17U A52U | 0.429
G17C C35U | 0.15
G17C C35G | 0.153
G17C U67A | 0.204
C18G G50C | 0.201
G17C C32G | 0.0951
G17U U61C | 0.186
G17U U61G | 0.344
G19C A51U | 0.157
G19C A51G | 0.182
G17C U55A | 0.177
C18U C34G | 0.426
C18U C34U | 0.919
C18A C24G | 0.186
G17U U64A | 0.201
G17U U64G | 0.183
C18U C66G | 0.341
C18G G65U | 0.161
G17U A23U | 0.714
C18G A52G | 0.244
C18G A52C | 0.181

Variant | self-cleavage
C18A U20A | 0.193
C18A U20G | 0.0591
C18G U67G | 0.229
G19A U44C | 0.16
C18A A42G | 0.208
G17C G50C | 0.111
G17C A42G | 0.128
G17A U61C | 0.264
C18A U62G | 0.152
C18A U62C | 0.141
C18A U62A | 0.133
G17C C33G | 0.171
G17C G37U | 0.107
C18G A59C | 0.149
C18G U38A | 0.158
G17C A59G | 0.122
G17C A59C | 0.104
C18A G68U | 0.264
G19A A59U | 0.169
C18U U43A | 0.549
C18A U55C | 0.21
G19A U20C | 0.166
G19A U20A | 0.145
G17C U36C | 0.118

Variant | self-cleavage
C18G G19C | 0.0934
G17C A51C | 0.165
G17C C18G | 0.148
G17C C18A | 0.118
G19A U67A | 0.147
C18A U46C | 0.228
G19C A42C | 0.153
G19C A42U | 0.173
G19C A42G | 0.11
G19C G25A | 0.101
G17C U38A | 0.155
C18U C45G | 0.778
C18U C45U | 0.877
C18U C57U | 0.3
C18U U55G | 0.39
G19A U61G | 0.164
C18A C66A | 0.13
C18A C66G | 0.147
C18A C66U | 0.153
C18G C57G | 0.17
G17C G31A | 0.111
G19A C63U | 0.116
G19A U21C | 0.164
G19A U21G | 0.14

Variant | self-cleavage
G19A U21A | 0.143
G17U G48A | 0.748
G17C U69C | 0.284
C18U C29G | 0.132
G17C C57G | 0.0859
C18U A60C | 0.288
C18U A60U | 0.318
G17C C22U | 0.145
G19C C24G | 0.135
G19C C24U | 0.204
G19C C24A | 0.183
G19C C63G | 0.204
G19C C63A | 0.144
G19C C63U | 0.135
G19A C34G | 0.181
C18G C63G | 0.104
G17U U69G | 0.768
G17U U69A | 0.675
C18U C39G | 0.491
C18G C29G | 0.187
G19A C39G | 0.149
C18G U49A | 0.259
C18G G25A | 0.174
C18G G58A | 0.104

Variant | self-cleavage
G17U U38C | 0.413
C18U U20G | 0.28
G19A U53C | 0.15
G19A U53G | 0.18
G17C U44G | 0.137
G17C U44C | 0.141
G17C U44A | 0.24
G19A C45U | 0.167
G19A C45A | 0.121
G17C G68U | 0.21
C18G G56C | 0.101
C18G G56A | 0.107
G17U C39U | 0.278
C18G G47C | 0.0572
C18G G47U | 0.177
G19A A42G | 0.166
G19A A42C | 0.13
C18A C34U | 0.16
C18A C34G | 0.14
G19A C32G | 0.153
G19A C32U | 0.216
G19A U62C | 0.231
C18A G19A | 0.135
G19A C35U | 0.188

Variant | self-cleavage
G19A C35A | 0.181
G19C C33A | 0.196
G17U U44G | 0.31
G19A A40G | 0.17
C18U G56C | 0.341
C18U G56U | 0.578
C18U A51C | 0.771
C18U G65U | 0.245
C18A G37C | 0.213
C18A U43C | 0.161
G17U C54A | 0.188
G17U C54U | 0.461
C18G A51G | 0.184
C18G A51U | 0.207
C18G U46G | 0.226
C18G G28A | 0.133
C18A G48C | 0.146
C18A G48A | 0.227
G19A C22A | 0.104
G19A U26C | 0.0939
G19A U26G | 0.19
C18U G30A | 0.282
C18A A59G | 0.145
C18A A59U | 0.123

Variant | self-cleavage
G17C C54U | 0.145
G17U C27U | 0.105
C18G U21A | 0.217
G17U C33G | 0.224
C18G C24U | 0.106
C18G C24G | 0.107
G17U U55C | 0.227
C18U G28C | 0.174
C18U G28U | 0.206
G17U G47U | 0.661
C18A A40C | 0.197
G17U C45A | 0.447
G19A G56U | 0.155
C18U A59U | 0.445
C18U A59C | 0.32
C18U G48A | 0.948
G17U U36C | 0.252
G19A U36C | 0.161
G17C U53C | 0.134
G17C U53A | 0.144
C18U G19A | 0.144
G17C G47U | 0.149
G17C G47A | 0.185
G17C U62C | 0.194

Variant | self-cleavage
C18A U64C | 0.14
C18A U64A | 0.108
G17U U21C | 0.14
G19A C33G | 0.172
G17U | 0.643
G17C | 0.166
C18U G37U | 0.198
G19C A60U | 0.128
G19C A60G | 0.119
G17U G28U | 0.134
G17C G48A | 0.137
G19A G37A | 0.142
G19A G37C | 0.128
G17C C29G | 0.931
G17C C29U | 0.199
G19C C57U | 0.146
G17C G41A | 0.136
G17U C32G | 0.135
G17U C32U | 0.514
G17U G58A | 0.343
G17C C27U | 0.16
C18U G58C | 0.852
C18A U53G | 0.17
C18A U53A | 0.188

Variant | self-cleavage
G17C C63A | 0.162
G17U G25U | 0.121
G17U G30A | 0.184
C18G C35A | 0.0628
C18U A40U | 0.378
C18U A40G | 0.742
C18A A52C | 0.152
C18A A23U | 0.179
C18A A23C | 0.128
C18A U36G | 0.145
C18U C32G | 0.213
G17U A40C | 0.147
G17U A40G | 0.352
G17U G68U | 0.768
G17U G68C | 0.818
G19C A40C | 0.0886
G19A U43C | 0.116
G19A U43A | 0.108
C18G C39A | 0.184
C18G C39G | 0.101
C18G C39U | 0.196
G17U G19C | 0.16
G19A G50U | 0.133
G19A A60G | 0.161

Variant | self-cleavage
C18G U44G | 0.169
C18G U44C | 0.125
C18A G56A | 0.156
C18A G56U | 0.133
G17U A42G | 0.353
C18A C35A | 0.155
C18U C35U | 0.687
G17U U46G | 0.599
G17U U46A | 0.624
C18U U26A | 0.669
C18A A51C | 0.164
C18G A40G | 0.122
G19A G31A | 0.17
C18G A42C | 0.124
C18A C29U | 0.0504
C18A C29A | 0.127
C18A C63A | 0.119
G19C C39U | 0.158
G19C C39G | 0.162
G19A G58A | 0.132
C18U U49A | 0.914
C18U U49C | 0.864
